Measured values as given in paper PMC10786891, “Massively parallel profiling of RNA-targeting CRISPR-Cas13d”.
Numbering of substitutions follows the chain as printed. In names and notes the source's numbering stands.

T1: EsCas13d, nuclease-dead (Eubacterium siraeum, UniProt B0MS50, R295A;H300A;R849A;H854A)
T1 sequence: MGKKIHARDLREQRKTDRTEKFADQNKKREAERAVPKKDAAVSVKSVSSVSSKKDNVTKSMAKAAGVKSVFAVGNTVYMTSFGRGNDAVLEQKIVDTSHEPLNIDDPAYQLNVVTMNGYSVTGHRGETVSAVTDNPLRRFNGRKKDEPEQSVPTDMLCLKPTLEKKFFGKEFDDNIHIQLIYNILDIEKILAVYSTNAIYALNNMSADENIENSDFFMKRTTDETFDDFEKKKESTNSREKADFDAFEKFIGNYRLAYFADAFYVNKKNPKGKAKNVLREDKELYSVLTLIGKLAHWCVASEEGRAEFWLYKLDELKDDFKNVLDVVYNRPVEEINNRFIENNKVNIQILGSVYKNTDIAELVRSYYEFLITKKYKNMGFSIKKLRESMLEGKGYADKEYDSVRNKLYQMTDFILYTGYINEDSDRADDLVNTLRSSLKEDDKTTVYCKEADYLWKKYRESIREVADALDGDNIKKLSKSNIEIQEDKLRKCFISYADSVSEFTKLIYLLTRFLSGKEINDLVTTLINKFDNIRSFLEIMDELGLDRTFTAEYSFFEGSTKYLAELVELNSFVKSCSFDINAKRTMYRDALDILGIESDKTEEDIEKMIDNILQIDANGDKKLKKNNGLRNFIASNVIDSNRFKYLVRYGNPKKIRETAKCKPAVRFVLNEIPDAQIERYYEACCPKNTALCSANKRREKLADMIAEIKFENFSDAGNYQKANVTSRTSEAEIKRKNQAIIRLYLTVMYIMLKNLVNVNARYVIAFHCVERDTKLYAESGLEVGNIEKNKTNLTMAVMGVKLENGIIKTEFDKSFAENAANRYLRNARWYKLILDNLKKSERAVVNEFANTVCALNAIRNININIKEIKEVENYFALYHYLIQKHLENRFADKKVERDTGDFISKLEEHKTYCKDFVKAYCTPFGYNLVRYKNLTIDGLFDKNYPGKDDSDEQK

B1: target 2 MT 5'PFS UAU 3'PFS AGU (mixed)
RNA 1: CACCCGUGCAAAAUUGCAGGGGUCUAAAACCUUCUCCAAAUUGUUUCAUCCU
RNA 2: GGGAAUGGAUCCACAUCUACGAAUUCUAUAGGAUGAAACAAUUUGGAGAAGAGUAGAUCGGAAGAGCACACGU
B2: target 2 MT 5'PFS ACG 3'PFS CGC (mixed)
RNA 1: B1 RNA 1
RNA 2: B1 RNA 2 with U27A, A28C, U29G, A52C, U54C
B3: target 2 MT 5'PFS ACU 3'PFS CAC (mixed)
RNA 1: B1 RNA 1
RNA 2: B1 RNA 2 with U27A, A28C, A52C, G53A, U54C
B4: target 2 MT 5'PFS GCA 3'PFS CAA (mixed)
RNA 1: B1 RNA 1
RNA 2: B1 RNA 2 with U27G, A28C, U29A, A52C, G53A, U54A
B5: target 2 MT 5'PFS ACG 3'PFS CGA (mixed)
RNA 1: B1 RNA 1
RNA 2: B1 RNA 2 with U27A, A28C, U29G, A52C, U54A
B6: target 2 MT 5'PFS GCC 3'PFS UUA (mixed)
RNA 1: B1 RNA 1
RNA 2: B1 RNA 2 with U27G, A28C, U29C, A52U, G53U, U54A
B7: target 2 MT 5'PFS GAC 3'PFS CUC (mixed)
RNA 1: B1 RNA 1
RNA 2: B1 RNA 2 with U27G, U29C, A52C, G53U, U54C
B8: target 2 MT 5'PFS GAC 3'PFS CUU (mixed)
RNA 1: B1 RNA 1
RNA 2: B1 RNA 2 with U27G, U29C, A52C, G53U
B9: target 2 MT 5'PFS CUU 3'PFS UGU (mixed)
RNA 1: B1 RNA 1
RNA 2: B1 RNA 2 with U27C, A28U, A52U
B10: target 2 MT 5'PFS CUU 3'PFS UGC (mixed)
RNA 1: B1 RNA 1
RNA 2: B1 RNA 2 with U27C, A28U, A52U, U54C
B11: target 2 MT 5'PFS UAA 3'PFS ACU (mixed)
RNA 1: B1 RNA 1
RNA 2: B1 RNA 2 with U29A, G53C
B12: target 2 MT 5'PFS ACU 3'PFS CAU (mixed)
RNA 1: B1 RNA 1
RNA 2: B1 RNA 2 with U27A, A28C, A52C, G53A
B13: target 2 MT 5'PFS GCC 3'PFS UUG (mixed)
RNA 1: B1 RNA 1
RNA 2: B1 RNA 2 with U27G, A28C, U29C, A52U, G53U, U54G
B14: target 2 MT 5'PFS UAA 3'PFS ACG (mixed)
RNA 1: B1 RNA 1
RNA 2: B1 RNA 2 with U29A, G53C, U54G
B15: target 2 MT 5'PFS CUU 3'PFS UGA (mixed)
RNA 1: B1 RNA 1
RNA 2: B1 RNA 2 with U27C, A28U, A52U, U54A
B16: target 2 MT 5'PFS GAG 3'PFS AUA (mixed)
RNA 1: B1 RNA 1
RNA 2: B1 RNA 2 with U27G, U29G, G53U, U54A
B17: target 2 MT 5'PFS UAA 3'PFS ACC (mixed)
RNA 1: B1 RNA 1
RNA 2: B1 RNA 2 with U29A, G53C, U54C
B18: target 2 MT 5'PFS GCC 3'PFS UUC (mixed)
RNA 1: B1 RNA 1
RNA 2: B1 RNA 2 with U27G, A28C, U29C, A52U, G53U, U54C
B19: target 2 MT 5'PFS UAA 3'PFS ACA (mixed)
RNA 1: B1 RNA 1
RNA 2: B1 RNA 2 with U29A, G53C, U54A
B20: target 2 MT 5'PFS GCA 3'PFS CAG (mixed)
RNA 1: B1 RNA 1
RNA 2: B1 RNA 2 with U27G, A28C, U29A, A52C, G53A, U54G
B21: target 2 MT 5'PFS GUG 3'PFS CAU (mixed)
RNA 1: B1 RNA 1
RNA 2: B1 RNA 2 with U27G, A28U, U29G, A52C, G53A
B22: target 2 MT 5'PFS GAG 3'PFS AUU (mixed)
RNA 1: B1 RNA 1
RNA 2: B1 RNA 2 with U27G, U29G, G53U
B23: target 2 MT 5'PFS ACU 3'PFS CAA (mixed)
RNA 1: B1 RNA 1
RNA 2: B1 RNA 2 with U27A, A28C, A52C, G53A, U54A
B24: target 2 MT 5'PFS ACU 3'PFS CAG (mixed)
RNA 1: B1 RNA 1
RNA 2: B1 RNA 2 with U27A, A28C, A52C, G53A, U54G
B25: target 2 MT 5'PFS UAU 3'PFS CGA (mixed)
RNA 1: B1 RNA 1
RNA 2: B1 RNA 2 with A52C, U54A
B26: target 2 MT 5'PFS GUC 3'PFS CCG (mixed)
RNA 1: B1 RNA 1
RNA 2: B1 RNA 2 with U27G, A28U, U29C, A52C, G53C, U54G
B27: target 2 MT 5'PFS GCA 3'PFS CAC (mixed)
RNA 1: B1 RNA 1
RNA 2: B1 RNA 2 with U27G, A28C, U29A, A52C, G53A, U54C
B28: target 2 MT 5'PFS GCC 3'PFS UUU (mixed)
RNA 1: B1 RNA 1
RNA 2: B1 RNA 2 with U27G, A28C, U29C, A52U, G53U
B29: target 1 insA 3' of 4,insG 3' of 4 (mixed)
RNA 1: CACCCGUGCAAAAAUGCAGGGGUCUAAAACUGAGCGGAUAACCUCUCUAUGG
RNA 2: GGGAAUGGAUCCACAUCUACGAAUUCGUACCAUAGAGAGGUUAUCCGCAGUCACCGAGAUCGGAAGAGCACACGU
B30: target 1 C6G,A14U (mixed)
RNA 1: B29 RNA 1
RNA 2: GGGAAUGGAUCCACAUCUACGAAUUCGUACCAUAGAGUGGUUAUCGGCUCACCGAGAUCGGAAGAGCACACGU
B31: target 1 insA 3' of 21,insC 3' of 11 (mixed)
RNA 1: B29 RNA 1
RNA 2: GGGAAUGGAUCCACAUCUACGAAUUCGUACCAAUAGAGAGGUCUAUCCGCUCACCGAGAUCGGAAGAGCACACGU
B32: target 1 C6G,A18U (mixed)
RNA 1: B29 RNA 1
RNA 2: B30 RNA 2 with A34U, U38A

molecular target: T1, EsCas13d, nuclease-dead; test: crRNA (strand 1, pre-loaded); Mg2+; 40 mM Tris-HCl pH 7.5, 150 mM NaCl, 6 mM MgCl2, 1 mM DTT, 0.1% Tween-20, 0.2 mg/ml BSA; 25 C; 10 min per concentration, then washed; conditions: tags: His6-TwinStrep-SUMO cleaved; N-terminal SNAP kept (SNAP-Surface 488); label: 3' end held by stalled T7 RNA polymerase

Binder | Kd
B1 | 15.2 ± 1.6 nM
B2 | 8.2 ± 1.1 nM
B3 | 4.1 ± 0.6 nM
B4 | 7.7 ± 1.1 nM
B5 | 8.5 ± 2.1 nM
B6 | 25 ± 7 nM
B7 | 12.1 ± 1.3 nM
B8 | 12.5 ± 1.3 nM
B9 | 4.26 ± 0.3 nM
B10 | 4.5 ± 0.9 nM
B11 | 9 ± 1.4 nM
B12 | 3.1 ± 0.5 nM
B13 | 15.3 ± 2.1 nM
B14 | 8.8 ± 2.1 nM
B15 | 6.5 ± 2 nM
B16 | 4.8 ± 0.5 nM

Binder | Kd
B17 | 24 ± 9 nM
B18 | 27 ± 7 nM
B19 | 6 ± 1.2 nM
B20 | 7.9 ± 1.5 nM
B21 | 9.2 ± 0.8 nM
B22 | 5.6 ± 0.4 nM
B23 | 3.7 ± 0.8 nM
B24 | 4.5 ± 0.5 nM
B25 | 27 ± 1.9 nM
B26 | 14.9 ± 1 nM
B27 | 7.5 ± 1 nM
B28 | 41 ± 11 nM
B29 | 5.32 ± 0.26 nM
B30 | 41 ± 14 nM
B31 | ~80 nM
B32 | 29 ± 4 nM
